Reference: patent US9580464B2, “Anti-inflammatory proteins and peptides and methods of preparation and use thereof” (ManukaMed Limited, priority 2012, dated 2017)

Target: Cathepsin B from bovine spleen (Bos taurus, UniProt P07688)
Experiment: Assay for Cathepsin B activity / inhibition (Z-Lys-pNP substrate, absorbance 330 nm)
Format: biochemical
[1] = Table 1, peptides from C-terminus of MRJP1, 2 mM MGO-modified peptide
[2] = Table 1, peptides from C-terminus of MRJP1, 2 mM unmodified peptide
[3] = Table 6, MRJP1 derived synthetic peptides, MGO-modified
[4] = Table 6, MRJP1 derived synthetic peptides, unmodified
[5] = Table 8, MRJP5 derived synthetic peptides, MGO-modified
[6] = Table 8, MRJP5 derived synthetic peptides, unmodified
[7] = Table 9, additional synthetic peptides, MGO-modified
[8] = Table 9, additional synthetic peptides, unmodified

Substance | Cathepsin B remaining activity (% of control) [3] | Cathepsin B remaining activity (% of control) [4] | Cathepsin B remaining activity (% of control) [5] | Cathepsin B remaining activity (% of control) [6] | also measured
Ac-KISI-OH [synthetic peptide derived from the C-terminus of MRJP1] |  |  |  |  | Cathepsin B remaining activity (% of control) [1]: 92.82 ± 5.44; Cathepsin B remaining activity (% of control) [2]: 133.11 ± 4.29
H-HNIR-OH [MRJP1 derived synthetic peptide] | 103.38 ± 3.65 | 151.51 ± 0.62 |  |  | 
H-MHR-OH (H-Met-His-Arg-OH) [MRJP5 derived synthetic peptide] |  |  | 80.66 ± 6.19 | 96.77 ± 9.26 | 
H-MTR-OH (H-Met-Thr-Arg-OH) [MRJP1 derived synthetic peptide] | 104.39 ± 2.68 | 143.48 ± 2.33 |  |  | 
Ac-HNIR-OH [MRJP1 derived synthetic peptide] | 106.82 ± 3.02 | 171.58 ± 11.29 |  |  | 
Ac-MDR-OH (Ac-Met-Asp-Arg-OH) [MRJP5 derived synthetic peptide] |  |  | 88.56 ± 2.14 | 107.34 ± 1.46 | 
Ac-PFKI-OH [synthetic peptide derived from the C-terminus of MRJP1] |  |  |  |  | Cathepsin B remaining activity (% of control) [1]: 91.45 ± 0.11; Cathepsin B remaining activity (% of control) [2]: 152.05 ± 13.20
Ac-LLK-NH2 (Ac-Leu-Leu-Lys-NH2) [synthetic peptide derived from MRJP1, 2, 4, amidated C-terminus] |  |  |  |  | Cathepsin B remaining activity (% of control) [7]: 136.90; Cathepsin B remaining activity (% of control) [8]: 159.34 ± 2.34
H-FDR-OH (H-Phe-Asp-Arg-OH) [MRJP1 derived synthetic peptide] | 71.18 ± 2.22 | 174.56 ± 11.96 |  |  | 
Ac-CDR-OH (Ac-Cys-Asp-Arg-OH) [MRJP1 derived synthetic peptide] | 78.51 ± 2.51 | 120.52 ± 8.17 |  |  | 
H-FTK-OH (H-Phe-Thr-Lys-OH) [MRJP1 derived synthetic peptide] | 76.59 ± 2.24 | 147.63 ± 0.70 |  |  | 
H-YINR-OH [MRJP1 derived synthetic peptide] | 79.21 ± 2.12 | 142.33 ± 3.64 |  |  | 
H-MQK-OH (H-Met-Gln-Lys-OH) [MRJP1 derived synthetic peptide] | 99.48 ± 2.95 | 127.00 ± 0.93 |  |  | 
Ac-LIR-OH (Ac-Leu-Ile-Arg-OH) [synthetic peptide derived from MRJP2, 4 (see Leu408)] |  |  |  |  | Cathepsin B inhibition after MGO modification (MGO-modified synthetic peptides): particularly potent activity; Cathepsin B remaining activity (% of control) [7]: 0.07; Cathepsin B remaining activity (% of control) [8]: 128.28 ± 2.50
Ac-FTK-OH (Ac-Phe-Thr-Lys-OH) [MRJP1 derived synthetic peptide] | 105.35 ± 5.73 | 148.84 ± 16.13 |  |  | 
Ac-FDR-OH (Ac-Phe-Asp-Arg-OH) [MRJP1 derived synthetic peptide] | 44.78 ± 1.54 | 85.57 ± 3.51 |  |  | 
Ac-NQKN-OH [synthetic peptide derived from the C-terminus of MRJP2] |  |  |  |  | Cathepsin B remaining activity (% of control) (Table 2, peptides from C-terminus of MRJP2, 2 mM MGO-modified peptide): 102.36 ± 6.36; Cathepsin B remaining activity (% of control) (Table 2, peptides from C-terminus of MRJP2, 2 mM unmodified peptide): 282.39 ± 19.66
Ac-YINR-OH [MRJP1 derived synthetic peptide] | 99.05 ± 7.78 | 93.14 ± 2.42 |  |  | 
Ac-LLK-OH (Ac-Leu-Leu-Lys-OH) [synthetic peptide derived from MRJP1, 2, 4] |  |  |  |  | Cathepsin B remaining activity (% of control) [7]: 147.60; Cathepsin B remaining activity (% of control) [8]: 141.56 ± 13.90
Ac-MTR-OH (Ac-Met-Thr-Arg-OH) [MRJP1 derived synthetic peptide] | 118.90 ± 5.62 | 126.30 ± 8.12 |  |  | 
Ac-SSKS-OH |  |  |  |  | Cathepsin B remaining activity (% of control) (Table 3, peptides from C-terminus of MRJP3, 2 mM MGO-modified peptide): 107.49 ± 4.29; Cathepsin B remaining activity (% of control) (Table 3, peptides from C-terminus of MRJP3, 2 mM unmodified peptide): 118.71 ± 9.09
Ac-LVK-NH2 (Ac-Leu-Val-Lys-NH2) [synthetic peptide derived from MRJP3 (see Leu170), amidated C-terminus] |  |  |  |  | Cathepsin B remaining activity (% of control) [7]: 80.03; Cathepsin B remaining activity (% of control) [8]: 92.71 ± 7.78

Second part, led by results:

Cathepsin B remaining activity (% of control) [3] | Cathepsin B remaining activity (% of control) [4] | Cathepsin B remaining activity (% of control) [5] | Cathepsin B remaining activity (% of control) [6] | Substance | also measured
 |  | 92.75 ± 2.41 | 100.51 ± 10.69 | Ac-TDK-OH (Ac-Thr-Asp-Lys-OH) [MRJP5 derived synthetic peptide] | 
 |  | 91.86 ± 3.50 | 102.61 ± 5.34 | H-TNR-OH (H-Thr-Asn-Arg-OH) [MRJP5 derived synthetic peptide] | 
 |  | 91.72 ± 0.84 | 96.48 ± 2.03 | Ac-TNR-OH (Ac-Thr-Asn-Arg-OH) [MRJP5 derived synthetic peptide] | 
 |  | 81.75 ± 3.26 | 93.46 ± 12.24 | Ac-IDR-OH (Ac-Ile-Asp-Arg-OH) [MRJP5 derived synthetic peptide] | 
 |  | 87.53 ± 3.26 | 103.18 ± 4.50 | H-TDK-OH (H-Thr-Asp-Lys-OH) [MRJP5 derived synthetic peptide] | 
 |  | 74.46 ± 0.97 | 101.73 ± 2.37 | H-MDR-OH (H-Met-Asp-Arg-OH) [MRJP5 derived synthetic peptide] | 
 |  | 68.49 ± 8.73 | 99.83 ± 3.40 | Ac-VNR-OH (Ac-Val-Asn-Arg-OH) [MRJP5 derived synthetic peptide] | 
 |  | 85.60 ± 5.32 | 98.02 ± 2.54 | H-IDR-OH (H-Ile-Asp-Arg-OH) [MRJP5 derived synthetic peptide] | 
 |  | 90.15 ± 1.52 | 102.05 ± 10.32 | Ac-LQK-OH (Ac-Leu-Gln-Lys-OH) [MRJP5 derived synthetic peptide] | 
 |  | 82.63 ± 7.88 | 97.75 ± 10.62 | H-VNR-OH (H-Val-Asn-Arg-OH) [MRJP5 derived synthetic peptide] | 
